Values quoted from earlier work as cited in US4446316A, “Dextran derivative of fibrinolysin” (Vsesojuzny Kardiologichesky Nauchny Tsentr, priority 1980, dated 1984).

Conditions: prior-art product (Kardiologiya, 1977); cited from earlier work

B1: derivative of fibrinolysin with aldehyde-containing sephadex: fibrinolysin reacted with a modified aldehyde-containing sephadex in a phosphate buffer at 4° C. (conjugate, UniProt P00747 20-580; P00747 581-810, looked up)
Plasmin heavy chain A: EPLDDYVNTQGASLFSVTKKQLGAGSIEECAAKCEEDEEFTCRAFQYHSKEQQCVIMAENRKSSIIIRMRDVVLFEKKVYLSECKTGNGKNYRGTMSKTKNGITCQKWSSTSPHRPRFSPATHPSEGLEENYCRNPDNDPQGPWCYTTDPEKRYDYCDILECEEECMHCSGENYDGKISKTMSGLECQAWDSQSPHAHGYIPSKFPNKNLKKNYCRNPDRELRPWCFTTDPNKRWELCDIPRCTTPPPSSGPTYQCLKGTGENYRGNVAVTVSGHTCQHWSAQTPHTHNRTPENFPCKNLDENYCRNPDGKRAPWCHTTNSQVRWEYCKIPSCDSSPVSTEQLAPTAPPELTPVVQDCYHGDGQSYRGTSSTTTTGKKCQSWSSMTPHRHQKTPENYPNAGLTMNYCRNPDADKGPWCFTTDPSVRWEYCNLKKCSGTEASVVAPPPVVLLPDVETPSEEDCMFGNGKGYRGKRATTVTGTPCQDWAAQEPHRHSIFTPETNPRAGLEKNYCRNPDGDVGGPWCYTTNPRKLYDYCDVPQCAAPSFDCGKPQVEPKKCPGR
Plasmin light chain B: VVGGCVAHPHSWPWQVSLRTRFGMHFCGGTLISPEWVLTAAHCLEKSPRPSSYKVILGAHQEVNLEPHVQEIEVSRLFLEPTRKDIALLKLSSPAVITDKVIPACLPSPNYVVADRTECFITGWGETQGTFGAGLLKEAQLPVIENKVCNRYEFLNGRVQSTELCAGHLAGGTDSCQGDSGGPLVCFEKDKYILQGVTSWGLGCARPNKPGVYVRVSRFVTWIEGVMRNN
modifications: plasmin conjugated to aldehyde-containing Sephadex
Solubility in water and aqueous solutions: not soluble
